From the supplement of paper PMC10065799, “High-throughput profiling of sequence recognition by tyrosine kinases and SH2 domains using bacterial peptide display” (eLife, 2023)

target: FGFR3 (UniProt P22607); assay: phosphorylation enrichment, bacterial display (enrichment ratio); higher = better substrate or ligand; peptides without Tyr show the background
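Note: 11-residue human phosphosite peptides and single-mutation variants displayed on the E. coli surface, counted by deep sequencing, each peptide's frequency after selection divided by its frequency in the unselected input library; frequency after pTyr selection over input frequency; kinase dosed for 20-30% of maximal phosphorylation in three min.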

FGFR3, sequence (P22607 whole entry, looked up): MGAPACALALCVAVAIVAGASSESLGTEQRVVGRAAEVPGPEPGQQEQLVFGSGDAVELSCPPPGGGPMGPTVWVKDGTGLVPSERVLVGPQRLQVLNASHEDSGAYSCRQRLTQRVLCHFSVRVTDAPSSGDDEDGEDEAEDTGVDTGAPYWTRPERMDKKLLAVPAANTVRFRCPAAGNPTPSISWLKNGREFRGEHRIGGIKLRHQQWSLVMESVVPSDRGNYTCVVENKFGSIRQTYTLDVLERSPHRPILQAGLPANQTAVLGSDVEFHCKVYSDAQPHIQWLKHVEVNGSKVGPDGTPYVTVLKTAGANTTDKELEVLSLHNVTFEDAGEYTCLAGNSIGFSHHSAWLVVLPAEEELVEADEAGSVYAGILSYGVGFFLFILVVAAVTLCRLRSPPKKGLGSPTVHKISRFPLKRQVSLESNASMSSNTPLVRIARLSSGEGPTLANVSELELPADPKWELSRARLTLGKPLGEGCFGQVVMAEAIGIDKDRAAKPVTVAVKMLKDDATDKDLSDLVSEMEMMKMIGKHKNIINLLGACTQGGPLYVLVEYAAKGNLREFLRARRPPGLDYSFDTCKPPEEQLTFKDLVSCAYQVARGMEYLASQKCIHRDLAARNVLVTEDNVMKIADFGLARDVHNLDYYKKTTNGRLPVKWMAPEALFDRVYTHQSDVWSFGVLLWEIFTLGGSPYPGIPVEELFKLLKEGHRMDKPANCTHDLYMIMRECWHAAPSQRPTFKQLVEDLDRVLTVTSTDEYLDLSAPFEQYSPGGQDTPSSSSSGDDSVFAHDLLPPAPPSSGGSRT

Sequence	phosphorylation enrichment
MDQAEYQAKIQ [DHX58_Y518_R523Q]	0.685
LDAFIYNAAVL [GRIN2A_Y730_D731N]	1.62
VNTTLYEKFTY [TEK_Y1108]	0.648
AALVQYFMEHH [PTPN11_Y80_E76A_YF]	0.727
YGLQAYTKVKT [ALDH2_Y502_E504K]	0.679
LGQRIYQFIRS [DYRK1B_Y271_Q275R_YF]	1.21
CTLLPYYSAPV [DGKE_Y269_R273P]	1.3
GGGGGYNRSSG [FUS_Y232]	0.386
LRNRVYEVPVE [SLC26A3_Y756]	0.757
KRISCYEASYQ [PFKFB3_Y194]	0.656
CSHMFYGKQCC [ADAMTS16_Y1211_K1209M]	0.606
ARMTNYGLPRF [TSPAN12_Y138_YF]	0.501
RGDIFYTSKLW [AKR1C3_Y81_E77G]	1.09
MARDIYRASFF [ALK_Y1278_YF]	0.449
GYEEAYSVFKK [PAFAH1B1_Y28]	0.681
LEIETYPRLLD [KRT12_Y429_R430P]	1.06
LMQAEYWHDPI [PPT1_Y185_V181M]	4.42

Sequence	phosphorylation enrichment
RDSQLYAVDFE [MRPS34_Y34_YF]	0.788
IEDNKYTAREG [HCK_Y411_E410K]	0.545
ETMNKYDLSGR [MYEF2_Y164]	0.498
FQKNSYSEELR [LMNA_Y211_I210S]	0.499
DEEPPYRGPFC [SASH1_Y551]	0.656
VRQQDYKKVEE [HADHA_Y283_V282D]	0.442
AKLDIYKRKVE [VWA3B_Y918_N916D]	0.382
TLMNAYSSRCH [KIF11_Y231_S235C]	0.637
NNRVFYGNSDC [RS1_Y177_R182C]	0.62
GQETSYIEDNC [PAH_Y24]	0.769
QFLMKYVRSAS [ABCD1_Y337_W339R]	0.873
GSSEDYLHMVH [NIPBL_Y247]	1
IFHENYNAGTY [CFI_Y421]	0.588
RGDVIYKGFED [NFU1_Y194_G189R]	0.699
RAIELYNDKEK [OTULIN_Y244]	0.924
ISSLRYKLLEE [TRPC6_Y896_E897K]	0.549

target: FGFR1 (UniProt P11362); assay: as above
Sequence (P11362 whole entry, looked up): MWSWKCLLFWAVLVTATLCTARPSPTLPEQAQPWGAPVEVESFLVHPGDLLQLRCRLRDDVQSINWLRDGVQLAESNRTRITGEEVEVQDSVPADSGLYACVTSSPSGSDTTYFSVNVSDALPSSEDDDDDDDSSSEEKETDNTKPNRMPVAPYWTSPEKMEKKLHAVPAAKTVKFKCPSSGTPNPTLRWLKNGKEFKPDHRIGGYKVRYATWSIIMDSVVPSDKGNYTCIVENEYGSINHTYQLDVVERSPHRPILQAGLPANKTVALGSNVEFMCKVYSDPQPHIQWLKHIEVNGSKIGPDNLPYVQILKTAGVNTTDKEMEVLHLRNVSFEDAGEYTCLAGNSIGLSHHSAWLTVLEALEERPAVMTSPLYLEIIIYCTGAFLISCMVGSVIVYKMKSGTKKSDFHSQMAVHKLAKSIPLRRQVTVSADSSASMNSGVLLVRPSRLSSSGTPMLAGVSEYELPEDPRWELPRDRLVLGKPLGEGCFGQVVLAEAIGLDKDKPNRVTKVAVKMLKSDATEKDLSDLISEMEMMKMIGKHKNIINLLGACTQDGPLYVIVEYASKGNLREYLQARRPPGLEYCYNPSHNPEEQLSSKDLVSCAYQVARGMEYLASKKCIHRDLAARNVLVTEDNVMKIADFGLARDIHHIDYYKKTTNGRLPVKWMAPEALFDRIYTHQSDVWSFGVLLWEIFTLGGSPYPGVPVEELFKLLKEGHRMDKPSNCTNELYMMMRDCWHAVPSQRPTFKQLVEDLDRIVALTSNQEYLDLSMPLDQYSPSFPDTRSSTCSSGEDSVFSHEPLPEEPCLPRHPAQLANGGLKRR

Sequence	phosphorylation enrichment
MDQAEYQAKIQ [DHX58_Y518_R523Q]	0.625
LDAFIYNAAVL [GRIN2A_Y730_D731N]	2.36
VNTTLYEKFTY [TEK_Y1108]	0.483
AALVQYFMEHH [PTPN11_Y80_E76A_YF]	0.573
YGLQAYTKVKT [ALDH2_Y502_E504K]	0.45
LGQRIYQFIRS [DYRK1B_Y271_Q275R_YF]	1.39
CTLLPYYSAPV [DGKE_Y269_R273P]	1.43
GGGGGYNRSSG [FUS_Y232]	0.304
LRNRVYEVPVE [SLC26A3_Y756]	0.584
KRISCYEASYQ [PFKFB3_Y194]	0.447
CSHMFYGKQCC [ADAMTS16_Y1211_K1209M]	0.464
ARMTNYGLPRF [TSPAN12_Y138_YF]	0.42
RGDIFYTSKLW [AKR1C3_Y81_E77G]	0.923
MARDIYRASFF [ALK_Y1278_YF]	0.435
GYEEAYSVFKK [PAFAH1B1_Y28]	0.491
LEIETYPRLLD [KRT12_Y429_R430P]	0.787
LMQAEYWHDPI [PPT1_Y185_V181M]	6.07

Sequence	phosphorylation enrichment
RDSQLYAVDFE [MRPS34_Y34_YF]	0.53
IEDNKYTAREG [HCK_Y411_E410K]	0.558
ETMNKYDLSGR [MYEF2_Y164]	0.421
FQKNSYSEELR [LMNA_Y211_I210S]	0.401
DEEPPYRGPFC [SASH1_Y551]	0.525
VRQQDYKKVEE [HADHA_Y283_V282D]	0.514
AKLDIYKRKVE [VWA3B_Y918_N916D]	0.298
TLMNAYSSRCH [KIF11_Y231_S235C]	0.492
NNRVFYGNSDC [RS1_Y177_R182C]	0.467
GQETSYIEDNC [PAH_Y24]	0.452
QFLMKYVRSAS [ABCD1_Y337_W339R]	0.431
GSSEDYLHMVH [NIPBL_Y247]	1.07
IFHENYNAGTY [CFI_Y421]	0.557
RGDVIYKGFED [NFU1_Y194_G189R]	0.514
RAIELYNDKEK [OTULIN_Y244]	0.923
ISSLRYKLLEE [TRPC6_Y896_E897K]	0.426

tested on: AncSZ; assay: as above

Sequence	phosphorylation enrichment
MDQAEYQAKIQ [DHX58_Y518_R523Q]	0.99
LDAFIYNAAVL [GRIN2A_Y730_D731N]	1.72
VNTTLYEKFTY [TEK_Y1108]	0.983
AALVQYFMEHH [PTPN11_Y80_E76A_YF]	0.798
YGLQAYTKVKT [ALDH2_Y502_E504K]	1.26
LGQRIYQFIRS [DYRK1B_Y271_Q275R_YF]	1.3
CTLLPYYSAPV [DGKE_Y269_R273P]	2.02
GGGGGYNRSSG [FUS_Y232]	0.478
LRNRVYEVPVE [SLC26A3_Y756]	1.65
KRISCYEASYQ [PFKFB3_Y194]	0.896
CSHMFYGKQCC [ADAMTS16_Y1211_K1209M]	0.839
ARMTNYGLPRF [TSPAN12_Y138_YF]	0.547
RGDIFYTSKLW [AKR1C3_Y81_E77G]	1.72
MARDIYRASFF [ALK_Y1278_YF]	0.67
GYEEAYSVFKK [PAFAH1B1_Y28]	1.35
LEIETYPRLLD [KRT12_Y429_R430P]	1.3
LMQAEYWHDPI [PPT1_Y185_V181M]	1.36

Sequence	phosphorylation enrichment
RDSQLYAVDFE [MRPS34_Y34_YF]	1.49
IEDNKYTAREG [HCK_Y411_E410K]	0.926
ETMNKYDLSGR [MYEF2_Y164]	0.667
FQKNSYSEELR [LMNA_Y211_I210S]	0.626
DEEPPYRGPFC [SASH1_Y551]	0.863
VRQQDYKKVEE [HADHA_Y283_V282D]	0.783
AKLDIYKRKVE [VWA3B_Y918_N916D]	0.589
TLMNAYSSRCH [KIF11_Y231_S235C]	1
NNRVFYGNSDC [RS1_Y177_R182C]	0.954
GQETSYIEDNC [PAH_Y24]	1.47
QFLMKYVRSAS [ABCD1_Y337_W339R]	0.995
GSSEDYLHMVH [NIPBL_Y247]	0.978
IFHENYNAGTY [CFI_Y421]	0.804
RGDVIYKGFED [NFU1_Y194_G189R]	0.81
RAIELYNDKEK [OTULIN_Y244]	1.52
ISSLRYKLLEE [TRPC6_Y896_E897K]	0.786

tested on: c-Src; assay: as above

Sequence	phosphorylation enrichment
MDQAEYQAKIQ [DHX58_Y518_R523Q]	0.556
LDAFIYNAAVL [GRIN2A_Y730_D731N]	2.32
VNTTLYEKFTY [TEK_Y1108]	3.87
AALVQYFMEHH [PTPN11_Y80_E76A_YF]	0.441
YGLQAYTKVKT [ALDH2_Y502_E504K]	0.435
LGQRIYQFIRS [DYRK1B_Y271_Q275R_YF]	2.83
CTLLPYYSAPV [DGKE_Y269_R273P]	1.25
GGGGGYNRSSG [FUS_Y232]	0.358
LRNRVYEVPVE [SLC26A3_Y756]	1.18
KRISCYEASYQ [PFKFB3_Y194]	0.467
CSHMFYGKQCC [ADAMTS16_Y1211_K1209M]	0.573
ARMTNYGLPRF [TSPAN12_Y138_YF]	0.519
RGDIFYTSKLW [AKR1C3_Y81_E77G]	0.735
MARDIYRASFF [ALK_Y1278_YF]	0.597
GYEEAYSVFKK [PAFAH1B1_Y28]	4.68
LEIETYPRLLD [KRT12_Y429_R430P]	0.772
LMQAEYWHDPI [PPT1_Y185_V181M]	0.54

Sequence	phosphorylation enrichment
RDSQLYAVDFE [MRPS34_Y34_YF]	1.35
IEDNKYTAREG [HCK_Y411_E410K]	0.506
ETMNKYDLSGR [MYEF2_Y164]	0.398
FQKNSYSEELR [LMNA_Y211_I210S]	0.452
DEEPPYRGPFC [SASH1_Y551]	0.493
VRQQDYKKVEE [HADHA_Y283_V282D]	0.43
AKLDIYKRKVE [VWA3B_Y918_N916D]	0.37
TLMNAYSSRCH [KIF11_Y231_S235C]	0.471
NNRVFYGNSDC [RS1_Y177_R182C]	0.381
GQETSYIEDNC [PAH_Y24]	0.515
QFLMKYVRSAS [ABCD1_Y337_W339R]	0.799
GSSEDYLHMVH [NIPBL_Y247]	0.524
IFHENYNAGTY [CFI_Y421]	0.655
RGDVIYKGFED [NFU1_Y194_G189R]	2.03
RAIELYNDKEK [OTULIN_Y244]	0.747
ISSLRYKLLEE [TRPC6_Y896_E897K]	0.407
